Results taken from article PMC5333157 (2017).

B1: ERK4 (wild-type), GAL4 activation domain fusion [not stated] / DUSP2 (wild-type), GAL4 DNA-binding domain fusion [human] (parent complex)
chain 1: MAEKGDCIASVYGYDLGGRFVDFQPLGFGVNGLVLSAVDSRACRKVAVKKIALSDARSMKHALREIKIIRRLDHDNIVKVYEVLGPKGTDLQGELFKFSVAYIVQEYMETDLARLLEQGTLAEEHAKLFMYQLLRGLKYIHSANVLHRDLKPANIFISTEDLVLKIGDFGLARIVDQHYSHKGYLSEGLVTKWYRSPRLLLSPNNYTKAIDMWAAGCILAEMLTGRMLFAGAHELEQMQLILETIPVIREEDKDELLRVMPSFVSSTWEVKRPLRKLLPEVNSEAIDFLEKILTFNPMDRLTAEMGLQHPYMSPYSCPEDEPTSQHPFRIEDEIDDIVLMAANQSQLSNWDTCSSRYPVSLSSDLEWRPDRCQDASEVQRDPRAGSAPLAEDVQVDPRKDSHSSSERFLEQSHSSMERAFEADYGRSCDYKVGSPSYLDKLLWRDNKPHHYSEPKLILDLSHWKQAAGAPPTATGLADTGAREDEPASLFLEIAQWVKSTQGGPEHASPPADDPERRLSASPPGRPAPVDGGASPQFDLDVFISRALKLCTKPEDLPDNKLGDLNGACIPEHPGDLVQTEAFSKERW
chain 2: MGLEAARELECAALGTLLRDPREAERTLLLDCRPFLAFCRRHVRAARPVPWNALLRRRARGPPAAVLACLLPDRALRTRLVRGELARAVVLDEGSASVAELRPDSPAHVLLAALLHETRAGPTAVYFLRGGFDGFQGCCPDLCSEAPAPALPPTGDKTSRSDSRAPVYDQGGPVEILPYLFLGSCSHSSDLQGLQACGITAVLNVSASCPNHFEGLFRYKSIPVEDNQMVEISAWFQEAIGFIDWVKNSGGRVLVHCQAGISRSATICLAYLMQSRRVRLDEAFDFVKQRRGVISPNFSFMGQLLQFETQVLCH

Variants of: B1
Test: yeast two-hybrid, β-galactosidase reporter assay; triplicate; read off a plot

response | Variant
~16 | chain 1 D320N
